From the supplement of paper PMC7877785
± gives the uncertainty stated by the source.

Assay: self-splicing fitness, log relative to wild type (ln ratio); higher = more splicing; Tetrahymena group I intron in knt gene, E. coli kanamycin selection, DiMSum; sequences stand for … in CUCUCU…GGAGGGAAAAGUUAUCAGGCAUGCACCUGGUAGCUAGUCUUUAAACCAAUAGAUUGCAUCGGUUUAAAAGGCAAGACCGUCAAAUUGCGGGAAAGGGGUCAACAGCCGUUCAGUACCAAGUCUCAGGGGAAACUUUGAGAUGGCCUUGCAAAGGGUAUGGUAAUAAGCUGACGGACAUGGUCCUAACCACGCAGCCAAGUCCUAAGUCAACAGAUCUUCUGUUGAUAUGGAUGCAGUUCACAGACUAAAUGUCGGUCGGGGAAGAUGUAUUCUUCUCAUAAGAUAUAGUCGGACCUCUCCUUAAUGGGAGCUAGCGGAUGAAGUGAUGCAACACUGGAGCCGCUGGGAACUAAUUUGUAUGCGAAAGUAUAUUGAUUAGUUUUGGAGUACUCGUGGUCG
Procedure, shortened: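 Pooled colonies went to amplicon sequencing on an Illumina HiSeq 2500 after six replicate transformations. The plates were LB agar with 100 μg/mL carbenicillin, 50 μM IPTG and 0.2% rhamnose, with or without 25 μg/mL kanamycin, incubated overnight at 37°C or 30°C. The E. coli BL21(DE3) library had all eight P1ex-region intron nucleotides randomised, the intron placed in the knt kanamycin-resistance gene on pET-22b(+). DiMSum fitness is the error-weighted combination of replicate fold changes, kanamycin against none, normalised to wild type.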

Row | Sequence | self-splicing fitness (ln) (30 °C) | self-splicing fitness (ln) (37 °C)
1 | GGAAAGCAAUAUUACGCAAC | -3.25 ± 0.24 | -1.02 ± 0.23
2 | GGAAAGCAAUAUUACGCCAA | -2.36 ± 0.41 | -0.527 ± 0.29
3 | GGAAAGCAAUAUUACGCCGC | -2.48 ± 0.41 | -1.89 ± 0.49
4 | GGAAAGCAAUAUUACGCUAC | -1.91 ± 0.26 | -1.86 ± 0.33
5 | GGAAAGCAAUAUUACGGACA | -0.913 ± 0.092 | 0.104 ± 0.097
6 | GGAAAGCAAUAUUACGGAGU | -3.76 ± 0.23 | -1.73 ± 0.18
7 | GGAAAGCAAUAUUACGGCAA | -0.443 ± 0.12 | -0.141 ± 0.11
8 | GGAAAGCAAUAUUACGGCGG | -2.47 ± 0.19 | -1.45 ± 0.2
9 | GGAAAGCAAUAUUACGGCGU | -0.39 ± 0.071 | -0.31 ± 0.1
10 | GGAAAGCAAUAUUACGGUGU | -2.29 ± 0.092 | -1.15 ± 0.12
11 | GGAAAGCAAUAUUACGUAGG | -3.23 ± 0.12 | -2.23 ± 0.14
12 | GGAAAGCAAUAUUACGUAUA | -2.2 ± 0.16 | -1.16 ± 0.18
13 | GGAAAGCAAUAUUACGUGCC | -1.94 ± 0.19 | -2.01 ± 0.25
14 | GGAAAGCAAUAUUACGUGGU | -3.11 ± 0.18 | -1.9 ± 0.16
15 | GGACAGCAAUAUUACGAAAG | -3.73 ± 0.33 | -2.88 ± 0.43
16 | GGACAGCAAUAUUACGAACC | -1.23 ± 0.27 | -0.895 ± 0.23
17 | GGACAGCAAUAUUACGAACU | -0.198 ± 0.08 | 0.442 ± 0.083
18 | GGACAGCAAUAUUACGAUAA | -1.81 ± 0.073 | -0.876 ± 0.08
19 | GGACAGCAAUAUUACGCAGC | -1.1 ± 0.083 | -0.558 ± 0.085
20 | GGACAGCAAUAUUACGCAGU | -4.28 ± 0.36 | -1.5 ± 0.24
21 | GGACAGCAAUAUUACGCCCA | -0.886 ± 0.45 | -0.212 ± 0.36

Row | Sequence | self-splicing fitness (ln) (30 °C) | self-splicing fitness (ln) (37 °C)
22 | GGACAGCAAUAUUACGCCUU | -0.676 ± 0.057 | -0.194 ± 0.069
23 | GGACAGCAAUAUUACGGAAC | -0.76 ± 0.1 | -0.102 ± 0.11
24 | GGACAGCAAUAUUACGGAAU | -1.19 ± 0.089 | -0.191 ± 0.12
25 | GGACAGCAAUAUUACGGCAC | -0.469 ± 0.12 | -0.25 ± 0.15
26 | GGACAGCAAUAUUACGGCUC | 0.0372 ± 0.08 | 0.377 ± 0.11
27 | GGACAGCAAUAUUACGGCUG | -3.23 ± 0.31 | -0.371 ± 0.18
28 | GGACAGCAAUAUUACGGGGU | -3.5 ± 0.17 | -2.17 ± 0.12
29 | GGACAGCAAUAUUACGGUCC | -3.67 ± 0.26 | -2.28 ± 0.23
30 | GGACAGCAAUAUUACGGUGU | -2.84 ± 0.11 | -1.89 ± 0.12
31 | GGACAGCAAUAUUACGGUUG | -1.41 ± 0.067 | -0.752 ± 0.083
32 | GGACAGCAAUAUUACGGUUU | -2.12 ± 0.072 | -0.504 ± 0.073
33 | GGACAGCAAUAUUACGUAUC | -0.918 ± 0.093 | -0.855 ± 0.11
34 | GGACAGCAAUAUUACGUGCA | -0.37 ± 0.085 | -0.64 ± 0.09
35 | GGACAGCAAUAUUACGUUUG | -0.577 ± 0.04 | -0.1 ± 0.058
36 | GGAGAGCAAUAUUACGAAUA | -2.51 ± 0.26 | 
37 | GGAGAGCAAUAUUACGAGUA | -3.36 ± 0.41 | -2.48 ± 0.32
38 | GGAGAGCAAUAUUACGAUCG | -1.88 ± 0.14 | -0.426 ± 0.16
39 | GGAGAGCAAUAUUACGCGGA |  | -1.29 ± 0.34
40 | GGAGAGCAAUAUUACGCUCA | -2.77 ± 0.27 | -0.851 ± 0.26
41 | GGAGAGCAAUAUUACGCUGG | -2.21 ± 0.29 | -2.41 ± 0.44
42 | GGAGAGCAAUAUUACGGAUA | -4.36 ± 0.46 | -2.05 ± 0.24
